Assay results from patent publication US20080113907A1, “Uses Of Galectin-2” (Charite-Universitat-Smedizin Berlin, priority 2004, published 2008).

Legend:
[1] = system: dextran sodium sulfate induced colitis; test: Prevention of DSS induced acute colitis, disease activity index (DAI); assay type: in vivo, Balb/c mice
Description: Colitis was induced in 8- to 10-week-old, female, Balb/c mice (Jackson Laboratories, Bar Harbor, Me.) by adding 5% DSS (Sigma Chemical Co., St. Louis, Mo.) (Dextran Sodiumsulfate (DSS) to their drinking water and allowing them to drink ad libitum. Groups of mice were treated either with 1 mg/kg BW (body weight) galectin-2 intraperitoneally or PBS 2 h before DSS administration. Mice were weighed and inspected for diarrhea and rectal bleeding. Seven days after induction of colitis by DSS, mice were killed, their entire colon was resected, and its length was measured and weighed. The disease activity index (DAI; i.e., the combined score of weight loss and bleeding) was determined according to a standard scoring system.
The disease activity index: Loss in bodyweight: 0=no loss; 1=5% to 10%; 2=10% to 15%; 3=15% to 20%; 4 ? 20%.
Hemoccult: 0=no blood; 2=positive; 4=gross blood.
In this experiment the DAI ranges from 0 to 8. The higher the DAI score the more severely the animal had been affected by colitis.
Colitis was induced in 8- to 10-week-old, female, Balb/c mice (Jackson Laboratories, Bar Harbor, Me.) by adding 5% DSS (Sigma Chemical Co., St. Louis, Mo.) (Dextran Sodiumsulfate (DSS) to their drinking water and allowing them to drink ad libitum. Groups of respectively 10 mice were treated either with Galectin-2 subcutaneously (s.c.) or intraperitoneally (i.p.) 2 h before DSS administration. In one trial with 10 mice the doses of Galectin-2 was doubled (administered i.p.) and compared to the treatment of 10 mice with Tacrolimus (FK506) (administered i.p.) in equal concentrations. In parallel a group of 10 mice was treated with 0.9% NaCl instead of Galectin-2 as control. Mice were weighed and inspected for diarrhea and rectal bleeding. 10 days after induction of colitis by DSS, mice were killed, their entire colon was resected, and its length was measured and weighed. The disease activity index (DAI; i.e., the combined score of weight loss and bleeding) was determined according to a standard scoring system.
The disease activity index: Loss in body weight: 0=no loss; 1=5% to 10%; 2=10% to 15%; 3=15% to 20%; 4 ? 20%.

[2] = Toxicity study with supratherapeutic dose in healthy mice; assay type: in vivo, Balb/c mice
Description: In addition, Balb/c mice (not treated with DSS) were treated with 100 mg/kg body weight-Galectin-2, a dose that was up to 50-fold higher than doses of Galectin-2 that caused optimal anti-inflammatory effects in DSS treated mice (optimal therapeutic doses ranged from 1.5-3 mg/kg body weight per day). In these toxicity studies Balb/c mice (n=5), weighing on average 20 g, were treated with 100 mg/kg body weight Galectin-2 once daily i.p. for 5 days. The mice gained about 7±1.7% weight during the 5 day treatment period. […] The mice were sacrificed following the 5 day treatment period and organs were collected for pathological assessment by an experienced pathologist.

CD3, CD7, β1 integrin = test: Magnetic separation / co-immunoprecipitation of galectin containing complexes; assay type: binding, human; details: galectin coated beads, immunoblot for CD3, CD7, β1
Description: For immunoblotting cells were washed in PBS, and lysed in cell lysis buffer (1% Triton-X, 0.5% NP-40, 0.1% SDS, 0.5% sodium deoxycholate, 5 mM EDTA, 50 mM and 50 mM protease- and phosphatase-inhibitor cocktail 2, 1 mM PMSF, 100 μg/ml trypsin-chymotrypsin inhibitor, 100 μg/ml chymostatin in PBS). The concentration of proteins in each lysate was measured using the Bio-Rad protein assay (Bio-Rad Laboratories, Hercules, Calif.). Equivalent amounts of protein (10 μg) were fractionated on a 10-20% Tris-glycine gel and electrotransferred to a nitrocellulose membrane (Novex, San Diego, Calif.). Membranes were blocked with 5% milk in 0.1% Tween 20-PBS (Fisher Scientific, Hanover Park, Ill.), followed by incubation for 60 m in at room temperature with the indicated primary antibody. The membranes were washed six times with 0.1% Tween 20-PBS and then incubated for 1 h with the appropriate horseradish peroxidase-conjugated secondary antibody (Santa Cruz Biotechnology), washed, and incubated with the chemiluminescent substrate (Perkin-Elmer, Carlsbad, Calif.) for 5 minutes. The membranes were then exposed to film (Amersham, Arlington Heights, Ill.). […]

caspase-9 = test: Caspase activity by flow cytometry; assay type: cell-based, human; details: anti-CD3 activated PBT, 50 μg/ml, 24 h
Description: To measure caspase activity, 5×10^5 PBT were incubated in the presence or absence of 50 μg/ml galectin-2 together with derivates of the PE-labelled affinity purified anti-caspase-3 Ab (BD Pharmingen), the carboxyfluorescein-labelled caspase-8 inhibitor FAM-LETD-fmk or caspase-9 inhibitor FAM-LEHD-fmk (both from Biocharta, Hamburg, Germany), all binding irreversibly to activated caspase-3, -8 or -9, respectively. Cells were than analyzed by flow cytometry (FACS-Calibur, BD) and the increase of caspase activity determined after proper gating in correlation to untreated cells.

PBT = test: Analysis of T cell cycling (DNA content, cyclin B1, cell cycle regulators); assay type: cell-based, human
Description: For immunoblotting cells were washed in PBS, and lysed in cell lysis buffer (1% Triton-X, 0.5% NP-40, 0.1% SDS, 0.5% sodium deoxycholate, 5 mM EDTA, 50 mM and 50 mM protease- and phosphatase-inhibitor cocktail 2, 1 mM PMSF, 100 μg/ml trypsin-chymotrypsin inhibitor, 100 μg/ml chymostatin in PBS). The concentration of proteins in each lysate was measured using the Bio-Rad protein assay (Bio-Rad Laboratories, Hercules, Calif.). Equivalent amounts of protein (10 μg) were fractionated on a 10-20% Tris-glycine gel and electrotransferred to a nitrocellulose membrane (Novex, San Diego, Calif.). Membranes were blocked with 5% milk in 0.1% Tween 20-PBS (Fisher Scientific, Hanover Park, Ill.), followed by incubation for 60 m in at room temperature with the indicated primary antibody. The membranes were washed six times with 0.1% Tween 20-PBS and then incubated for 1 h with the appropriate horseradish peroxidase-conjugated secondary antibody (Santa Cruz Biotechnology), washed, and incubated with the chemiluminescent substrate (Perkin-Elmer, Carlsbad, Calif.) for 5 minutes. The membranes were then exposed to film (Amersham, Arlington Heights, Ill.).
Flow cytometry was performed after staining for DNA content, and cyclin B1, essentially as previously described (21). Briefly, cells were washed twice with PBS, adjusted to 1×10^6 cells/sample and fixed in 90% Methanol at −20° C. After fixation, cells were washed twice with PBS, incubated for 45 min at 4° C. with a cyclin B1-FITC conjugated monoclonal antibody. After the final wash, cells were resupended in PBS and 5 μl of RNase (0.6 μg/ml, 30-60 Kunitz Units, Sigma), incubated at 37° C. for 15 min and the chilled on ice. One hundred and twenty five microliters of PI (200 μg/ml) were added prior to analysis by flow cytometry. Each analysis was performed on at least 25.000 events.

[3] = 100 mg/kg once daily i.p. for 5 days

B1: galectin-2: β-galactoside binding lectin, non-covalent dimer with subunits of about 14 kDa; recombinant human or rat (SEQ ID NO:1, 2) (protein)
chain: MAGELEVKNMDMKPGSTLKITGSIADGTDGFVINLGQGTDKLNLHFNPRFSESTIVCNSLDGSNWGQEQREDHLCFSPGSEVKFTVTFESDKFKVKLPDGHELTFPNRLGHSHLSYLSVRGGFNMSSFKLKE
Question: With B1 as the molecule, how does the “DAI (disease activity index)” value ([1]; 1 mg/kg BW i.p. 2 h before DSS, seven days after induction, mean ± SD, DAI 0 to 8, control 6.3 ± 2.30) read?
Answer: 4.5 ± 2.1,

Question: What about the “DAI (disease activity index)” value ([1]; 1 mg/kg i.p., 10 days after induction, control 6.5 ± 0.3) of the same molecule?
Answer: 5.0 ± 0.7,

Question: And the “DAI (disease activity index)” value ([1]; 1 mg/kg s.c., 10 days after induction, control 6.5 ± 0.3)?
Answer: 5.8 ± 0.7,

Question: And the “DAI (disease activity index)” value ([1]; 2 mg/kg i.p., 10 days after induction, control 6.5 ± 0.3)?
Answer: 2.6 ± 0.6,

Question: And the mortality [2, 3]?
Answer: None of these animals died

Question: And the “pathological assessment of heart, kidney, lung, liver” value [2, 3]?
Answer: did not reveal any microscopic or macroscopic damage

Question: And the weight gain [2, 3]?
Answer: about 7±1.7%

Question: And the “highest dose evaluated relative to optimal dose” value ([2]; 100 mg/kg versus 2×1 mg/kg)?
Answer: about 50 fold

Question: And the dose limiting toxicities ([2]; broad dose range up to 100 mg/kg)?
Answer: no dose limiting toxicities were observed

Question: And the glycoproteins co-immunoprecipitated (CD3, CD7, β1 integrin)?
Answer: coimmunoprecipitate only with integrin β1

Question: What about the caspase-9 activity (caspase-9) of the same molecule?
Answer: significant increase

Question: What about the “cyclin B1 levels / cell cycle progression” value (PBT; anti-CD3 activated PBT) of the same molecule?
Answer: unchanged cyclin B1 levels

Question: And the “cell cycle phase distribution” value (PBT; anti-CD3 activated PBT, 25, 50, 100 μg/ml)?
Answer: comparable

Question: What about the “protein levels of cyclin D2, Rb, cyclin A, p21, p27, p53” value (PBT; western blot, 72 h) of the same molecule?
Answer: did not alter protein levels
